This assay deals with T1, FliI, flagellar ATPase, full-length protein released from GST-FliI by thrombin (S. typhimurium SJW1103), P26465.
T1 chain: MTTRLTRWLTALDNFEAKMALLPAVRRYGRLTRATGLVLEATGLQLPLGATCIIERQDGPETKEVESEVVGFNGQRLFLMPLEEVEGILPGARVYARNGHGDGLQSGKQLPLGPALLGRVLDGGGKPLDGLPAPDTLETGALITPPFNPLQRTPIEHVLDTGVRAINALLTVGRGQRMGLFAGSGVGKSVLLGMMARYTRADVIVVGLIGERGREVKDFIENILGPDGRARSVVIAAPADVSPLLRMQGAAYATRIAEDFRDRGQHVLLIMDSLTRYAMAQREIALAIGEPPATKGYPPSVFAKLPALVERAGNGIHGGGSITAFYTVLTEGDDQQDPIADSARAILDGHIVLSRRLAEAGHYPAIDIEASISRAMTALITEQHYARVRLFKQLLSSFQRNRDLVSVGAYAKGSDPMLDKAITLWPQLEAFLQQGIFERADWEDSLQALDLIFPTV
Briefly: negative-stain electron microscopy with single particle analysis. The conditions noted are these: remark: other sources report otherwise.

These results are taken from article PMC2528289.

The term stoichiometry N denotes a count of units in the complex or per binding partner.

B1: FliI, flagellar ATPase, full-length protein released from GST-FliI by thrombin, P26465 1-456 (enzyme)
chain: T1 chain
As for B1, the stoichiometry N was 6.
